According to patent publication US20090117593A1, “T. Cruzi-derived neurotrophic agents and methods of use therefor” (Tufts University, priority 2006, published 2009):

Columns and labels:
Bcl-2 = Bcl-2 gene expression in PC12 cells by RT-PCR; type: cell-based, rat; conditions: TS 2.5 ng/ml, CNTF 50 ng/ml, alone or combined, 17 hours
Description: Total RNA was extracted from PC12 cells by the acid guanidinum isothiocyanate method (Chomchinski, P., Biotechniques, 15:532-535 (1993)) using TRI-reagent (Molecular Research Center, Inc.) cDNA synthesis was performed according to the instruction of the manufacturer (Gibco-BRL). Reverse transcription reactions were carried out for 50 minutes at 42° C. and were heated to 70° C. for 15 minutes to terminate the reaction using a MiniCycler (MJ Research). Samples were cooled to 4° C. and stored at −20° C. until use.
PCR reactions were performed in 50 μl containing 1.5 μl of template DNA (corresponding to cDNA synthesized from 100 ng of total RNA), 1×PCR buffer, 100 μM of deoxynucleotides, 2.5 mM MgCl2, 10 mM DTT, 10 μM of Bcl-2 primers, and 2 U of Taq DNA polymerase (Gibco-BRL). The synthetic DNA primers for the rat Bcl-2 were: 5′-[…]-3′ (SEQ ID NO:8) and 5′-[…]-3′ (SEQ ID NO:9) to give a PCR product of 566 bp. The sequences for synthetic GAPDH DNA primers (Wong, H. et al., Anal. Biochem., 223: 251-258 (1994)) were: 5′-[…]-3′ (SEQ ID NO:10) and 5′-[…]-3′ (SEQ ID NO:11) giving a PCR produce of 306 base pairs. […] Gels were analyzed by computerized densitometric scanning using Gel doc 1000 (Bio Rad) and Molecular Analyst Software, version 2.1.

PC12 cells = assay: Protection of PC12 cells from apoptosis induced by trophic factor withdrawal (DAPI, TUNEL); type: cell-based; conditions: serum-free RPMI-1640/0.2% BSA, 17 hours, DAPI or TUNEL
From the text: PC12 cells were obtained from ATCC (Manassas, Va. (Accession No. CRL-1721)) and cultured on collagen-coated dishes in RPMI 1640 supplemented with 10% horse serum and 5% fetal bovine serum (Greene, L., and Tishler, A., Proc. Natl. Acad. Sci. USA, 73:2424-2428 (1976)). For differentiation and survival experiments, cells were washed three times in serum-free RPMI/0.2% BSA, plated in the same medium in collagen-coated plastic dishes at 2×10^5/ml, without and with growth factors, TS, recombinant proteins, synthetic peptides, for the time and concentrations indicated in the Figures.
Cell staining with 4,6-diamino-2-phenylindole (DAPI). Cells were fixed with 4% formaldehyde in PBS for 5 minutes, washed with PBS, stained with 10 μg/ml DAPI (Sigma) for 2 minutes, washed with PBS, and visualized under UV light using a fluorescent microscope. About 300-400 cells were examined under the microscope to determine the percentage of apoptotic cells.
Cell DNA nick end labeling (TUNEL) (Gavrieli, Y. et al., J. Cell. Biol., 119:493-501 (1992)) assay was performed using a kit purchased from Boehringer Mannheim as described by the manufacturer.
Protection against apoptosis of PC12 cells in serum-free medium containing a test agent (agent N) (e.g., protection induced by TS, TS fragments, NGF or other growth factors), was calculated by the formula: 100%−[(apoptosis(%) of cells kept in RPMI containing test agent N÷apoptosis (%) of cells kept in RPMI)×100%]. Testing the effect of Wortmannin (Sigma) and LY294002 (Sigma) in inhibiting the neuroprotection of TS was performed following the protocol described by others (Yao, R., and Cooper, G., Science, 267:2003-2006 (1995); D'Mello, et al., J. Neurosci., 17:1548-1560 (1997)). In brief, PC12 cells were switched from growth medium to RPMI without and with TS or various other growth factors. After 24 hours, Wortmannin and LY294002 were added to the cultures. After another 24 hours, cells were examined for apoptosis by the DAPI assay, as above.

B1: CNTF: human ciliary neurotrophic factor; recombinant human and rat CNTF (protein, UniProt P26441 1-200, looked up)
Ciliary neurotrophic factor: MAFTEHSPLTPHRRDLCSRSIWLARKIRSDLTALTESYVKHQGLNKNINLDSADGMPVASTDQWSELTEAERLQENLQAYRTFHVLLARLLEDQQVHFTPTEGDFHQAIHTLLLQVAAFAYQIEELMILLEYKIPRNEADGMPINVGDGGLFEKKLWGLKVLQELSQWTVRSIHDLRFISSHQTGIPARGSHYIANNKKM
bcl-2 mRNA expression in PC12 cells (Bcl-2): did not induce bcl-2 gene expression individually | protection of PC12 cells from apoptosis induced by trophic factor withdrawal (PC12 cells): produced little, if any, protection
